The source of these data is PMC8466755, “GPCR Pharmacological Profiling of Aaptamine from the Philippine Sponge Stylissa sp. Extends Its Therapeutic Potential for Noncommunicable Diseases” (Molecules, 2021).

For one experiment, the target named is T1, CCR3 (Homo sapiens, UniProt P51677).
T1 sequence (P51677 1-355): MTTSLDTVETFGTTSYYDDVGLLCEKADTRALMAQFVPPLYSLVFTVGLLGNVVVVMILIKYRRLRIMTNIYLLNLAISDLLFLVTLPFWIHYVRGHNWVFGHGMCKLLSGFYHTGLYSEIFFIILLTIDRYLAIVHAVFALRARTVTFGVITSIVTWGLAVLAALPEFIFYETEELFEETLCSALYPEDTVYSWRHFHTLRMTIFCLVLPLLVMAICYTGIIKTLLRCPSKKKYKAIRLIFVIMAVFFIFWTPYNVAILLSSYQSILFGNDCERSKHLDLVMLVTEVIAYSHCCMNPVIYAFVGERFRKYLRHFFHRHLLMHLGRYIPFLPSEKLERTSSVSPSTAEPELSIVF
In words: PathHunter β-arrestin assay, positive allosteric modulation (PAM) mode. The format is cell-based. Particulars: control agonist; read-out: EC50 of positive control ligand. As for the experimental part: (§1) Hit validation was performed by subjecting the aaptamine to an agonist, antagonist, and positive allosteric modulation (PAM) secondary screen utilizing thirteen GPCR biosensor assays (Arrestin) against the following targets: ADRA2A, ADRA2C, ADRB2, CCR1, CCR3, CXCR3, CXCR7, DRD2L, DRD2S, DRD4, HTR1E, OPRK1, and SSTR1. The assays were performed at 10-point concentrations using three-fold serial dilutions in duplicate. For all the assay formats, the final assay vehicle concentration was 1%.
(§2) For PAM assays, the cells were preincubated with the sample followed by agonist induction at the EC20 concentration. To the cells, 5 µL of 5X sample was added and incubated for 30 min at 37 °C or room temperature. Following the incubation period, 5 µL of the 6X EC20 agonist prepared in an assay buffer was added to the cells and incubated for 90 or 180 min at 37 °C or room temperature. The percent activity of aaptamine was calculated following this formula: % modulation = 100% × ((mean RLU of test sample − mean RLU of EC20 control)/(mean RLU of MAX control ligand − mean RLU of EC20 control)).

In the next experiment the target is T2, CCR1 (Homo sapiens, UniProt P32246).
T2 sequence (P32246 1-355): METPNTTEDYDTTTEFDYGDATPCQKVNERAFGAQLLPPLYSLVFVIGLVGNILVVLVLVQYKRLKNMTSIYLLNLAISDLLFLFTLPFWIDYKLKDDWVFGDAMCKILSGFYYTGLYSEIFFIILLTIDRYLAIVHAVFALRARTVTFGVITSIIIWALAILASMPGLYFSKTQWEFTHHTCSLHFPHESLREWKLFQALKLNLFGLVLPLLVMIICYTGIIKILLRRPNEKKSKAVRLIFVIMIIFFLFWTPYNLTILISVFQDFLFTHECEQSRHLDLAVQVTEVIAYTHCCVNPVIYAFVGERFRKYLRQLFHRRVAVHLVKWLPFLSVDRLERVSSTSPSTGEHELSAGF
In words: PathHunter β-arrestin assay, agonist mode. The format is cell-based. Particulars: dose-response, agonist mode. As for the experimental part: Aaptamine (20 µM) was profiled in gpcrMAX panel biosensor assays (in agonist and antagonist modes) against a panel of 168 GPCRs. The assay was performed by DiscoverX Corporation (Fremont, CA) using PathHunter β -arrestin enzyme fragment complementation (EFC) technology, in a similar way to that described elsewhere. The PathHunter cell lines were taken from freezer stocks according to standard procedures. A total of 20 µL of cells were seeded into white 384-well plates and incubated at 37 °C for the appropriate time prior to testing.
For agonist determination, aaptamine was incubated with PathHunter cell lines to induce a response. To increase the concentration, intermediate dilution from 20 µM of aaptamine was performed to generate a 5X sample in an assay buffer. Then, 5 µL of 5X sample was added to the plate with PathHunter cells and incubated for 90 or 180 min at 37 °C or room temperature. The percentage activity of aaptamine was calculated following this formula: % activity = 100% × (mean RLU of test sample − mean RLU of vehicle control)/(mean MAX control ligand − mean RLU of vehicle control).
as §1

Experiment [1] concerns the target delta opioid receptor (δ-OR, OPRD1). Details: method as in PMID 27744679. Particulars: calcium mobilization pathway; read-out: EC50 agonist, delta opioid receptor; cited from earlier work. Background: Calcium assays in cells follow changes in intracellular calcium, usually with a dye or a luminescent sensor.
Another experiment addresses T3, CXCR3 (Homo sapiens, UniProt P49682).
T3 sequence (P49682 1-368): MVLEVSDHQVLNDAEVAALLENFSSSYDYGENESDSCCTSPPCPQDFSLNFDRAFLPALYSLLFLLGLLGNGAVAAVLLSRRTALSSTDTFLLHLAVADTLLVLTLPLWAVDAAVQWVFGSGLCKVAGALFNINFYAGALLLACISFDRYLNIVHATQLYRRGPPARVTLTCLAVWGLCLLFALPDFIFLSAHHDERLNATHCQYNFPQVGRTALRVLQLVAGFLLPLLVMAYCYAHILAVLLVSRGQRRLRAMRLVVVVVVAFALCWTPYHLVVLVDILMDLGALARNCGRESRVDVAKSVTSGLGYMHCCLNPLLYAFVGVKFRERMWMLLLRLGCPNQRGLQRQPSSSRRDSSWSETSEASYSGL
In words: PathHunter β-arrestin assay, positive allosteric modulation (PAM) mode. The format is cell-based. Particulars: control agonist; read-out: EC50 of positive control ligand. As for the experimental part: as §1, §2

On to “CCL3: ligand used as positive control for CCR3”, for which the EC50 in the experiment with CCR3 was 3 nM.

Consider “CCL13: ligand used as positive control for CCR1”, for which, in the experiment with CCR1, the EC50 was found to be 26 nM.

For the compound `COc1cc2ccnc3c2c(c1O)NC=C3` [9-demethyl aaptamine], the EC50 in experiment [1] was 4100 nM.

Turning to “CXCL11: ligand used as positive control for CXCR3”, in the experiment with CXCR3, the EC50 worked out at 6.7 nM.

Consider `COC1=Cc2ccnc3ccnc(c23)C1=O` [demethyl(oxy)-aaptamine], for which, in experiment [1], the EC50 was 2300 nM.
